Laboratory results: patent US20040156861A1 (US Dept. of Health and Human Services, published 2004)
Where two headings read alike, the source gives them in different places. Values belong to the molecule of their own block, whether it stands above or below them.

Tests used:
[1] = biological target: gp100 154-162 epitope …; assay: cell-based or functional assay
[2] = biological target: gp100 154-162 epitope-analogue …; assay: cell-based or functional assay
[3] = biological target: gp100 280-288 …; assay: cell-based or functional assay
HLA-A*0201 [4] = biological target: T1, HLA-A*0201 (human); assay: T2 cell HLA-A*0201 stabilization, flow cytometry with mAb BB7.2
T1 construct: also called HLA-A2.1; HLA-A2

[5] = biological target: Melan-A/MART-1 27-35 epitope …; assay: cell-based or functional assay
[6] = biological target: Melan-A/MART-1 27-35 epitope-analogue AIGIGLTV (SEQ ID NO: 30); assay: cell-based or functional assay
[7] = biological target: gp100 280-288 …; assay: cell-based or functional assay; remark: listed apart in the source
HLA-A*0201 [8] = biological target: T1, HLA-A*0201; assay: T2 cell HLA-A*0201 stabilization, flow cytometry with mAb BB7.2; remark: listed apart in the source
Description: (§1) Briefly, peptides were diluted from DMSO stocks to various concentrations (final DMSO concentration 0.5%) and were incubated together with 10⁵ T2 cells for 14 hours at 37° C., 5% CO₂ in serum-free Iscoves medium in a volume of 100 ml in the presence of 3 mg/ml human β2-microglobulin (Sigma, St Louis, Mo.). […] The Fluorescence Index is expressed as: (experimental mean fluorescence÷background mean fluorescence)−1.
(§2) ^aBinding of peptides to HLA-A2.1 was analyzed using the processing-defective T2 cell line at the indicated peptide concentrations.

HLA-A*0201 [9] = biological target: T1, HLA-A*0201; assay: as above; remark: listed apart in the source
Description: as §1, §2

HLA-A*0201 [10] = biological target: T1, HLA-A*0201; assay: decay of cell-surface HLA-A*0201-peptide complexes at 37 C on emetine-pretreated B-LCL, flow cytometry
Description: Measurement of MHC-peptide complex stability was performed. […] The cells were then mild-acid treated and subsequently loaded with 200 mM of peptide for 1 hour at room temperature. Thereafter, the cells were washed twice to remove free peptide and were incubated at 37° C. for 0, 2, 4 and 6 hours.

HLA-A*0201 [11] = biological target: T1, HLA-A*0201; assay: competition with 150 nM FL-labeled reference peptide on mild-acid treated HLA-A*0201+ JY B-LCL at 4 C, flow cytometry
Excerpt: Subsequently, the cells were washed, fixed with paraformaldehyde and analyzed by flow cytometry. […] The binding capacity of competitor peptides is expressed as the concentration needed to inhibit 50% of binding of the FL-labeled reference peptide (IC₅₀).

- Fluorescence Index (HLA-A*0201 stabilization), 25 µM peptide (HLA-A*0201 [9]): 1.28
- Fluorescence Index (HLA-A*0201 stabilization), 50 µM peptide (HLA-A*0201 [9]): 1.73
B1: gp100 154-162 epitope-analogue KMWGQYWQV (peptide)
peptide: KMWGQYWQV
notes: synthetic; N-terminal anchor (position 2) replaced by M

- Fluorescence Index (HLA-A*0201 stabilization), 25 µM peptide (HLA-A*0201 [8]): 1.02
- Fluorescence Index (HLA-A*0201 stabilization), 50 µM peptide (HLA-A*0201 [8]): 1.08
Molecule: KTWGQYWQA (synthetic; alanine at position 9) [gp100 154-162 epitope-analogue KTWGQYWQA]

- Fluorescence Index (HLA-A*0201 stabilization), 25 µM peptide (HLA-A*0201 [8]): 1.14
- Fluorescence Index (HLA-A*0201 stabilization), 50 µM peptide (HLA-A*0201 [8]): 1.31
Molecule: KTWGQYAQV (synthetic; alanine at position 7) [gp100 154-162 epitope-analogue KTWGQYAQV]

- Fluorescence Index (HLA-A*0201 stabilization), 25 µM peptide (HLA-A*0201 [9]): 1.57
- Fluorescence Index (HLA-A*0201 stabilization), 50 µM peptide (HLA-A*0201 [9]): 2.13
- Stability (DT 50%) (HLA-A*0201 [10]): > 4 h
- IC50 (HLA-A*0201 [11]): 800 nM
B2: gp100 154-162 epitope-analogue KVWGQYWQV (peptide)
peptide: KVWGQYWQV
notes: synthetic; N-terminal anchor (position 2) replaced by V

- Fluorescence Index (HLA-A*0201 stabilization), 25 µM peptide (HLA-A*0201 [8]): 1.35
- Fluorescence Index (HLA-A*0201 stabilization), 50 µM peptide (HLA-A*0201 [8]): 1.72
- Stability (DT 50%) (HLA-A*0201 [10]): > 4 h
- IC50 (HLA-A*0201 [11]): 500 nM
Molecule: KTWGQYWAV (synthetic; alanine at position 8) [gp100 154-162 epitope-analogue KTWGQYWAV]

- Fluorescence Index (HLA-A*0201 stabilization), 25 µM peptide (HLA-A*0201 [8]): 1.25
- Fluorescence Index (HLA-A*0201 stabilization), 50 µM peptide (HLA-A*0201 [8]): 1.59
Molecule: KTWGAYWQV (synthetic; alanine at position 5) [gp100 154-162 epitope-analogue KTWGAYWQV]

- Fluorescence Index (HLA-A*0201 stabilization), 25 µM peptide (HLA-A*0201 [8]): 1.15
- Fluorescence Index (HLA-A*0201 stabilization), 50 µM peptide (HLA-A*0201 [8]): 1.42
Molecule: KTWGQAWQV (synthetic; alanine at position 6) [gp100 154-162 epitope-analogue KTWGQAWQV]

- Fluorescence Index (HLA-A*0201 stabilization), 25 µM peptide (HLA-A*0201 [8]): 1.02
- Fluorescence Index (HLA-A*0201 stabilization), 50 µM peptide (HLA-A*0201 [8]): 1.17
Molecule: KTAGQYWQV (synthetic; alanine at position 3) [gp100 154-162 epitope-analogue KTAGQYWQV]

The remaining lines, values behind:

Molecule: T-cell receptor of gp100-reactive TIL 1200 lymphocytes (TCR)
- % specific lysis by TIL 1200 of T2 target cells preincubated with 1 µM peptide, E:T 20:1 (% specific lysis) [1]: 67
- peptide titration, sensitization of T2 target cells for lysis by TIL 1200 (FIG. 1) (fold lower concentration than wild type) [2]: 10
- peptide titration, sensitization of T2 target cells for lysis by TIL 1200 (FIG. 2) (fold lower concentration than wild type) [2]: 10
- % specific lysis by TIL 1200 of T2 target cells preincubated with 1 µM peptide, E:T 20:1 (% specific lysis) [3]: 3

Molecule: Melan-A/MART-1 27-35 epitope-analogue AIGIGLTV (SEQ ID NO: 30) (peptide)
- Fluorescence Index (HLA-A*0201 stabilization), 25 µM peptide (HLA-A*0201 [4]): 1.29
- Fluorescence Index (HLA-A*0201 stabilization), 50 µM peptide (HLA-A*0201 [4]): 1.58

Molecule: T-cell receptor of Melan-A/MART-1 27-35-reactive TIL 1235 lymphocytes (TCR)
- % specific lysis by TIL 1235 of T2 target cells preincubated with 1 µM peptide, E:T 20:1 (% specific lysis) [5]: 40
- % specific lysis by TIL 1235 of T2 target cells preincubated with 1 µM peptide, E:T 20:1 (% specific lysis) [3]: -3
- % specific lysis by TIL 1235 of T2 target cells preincubated with 1 µM peptide, E:T 20:1 (% specific lysis) [6]: 27
- % specific lysis by TIL 1235 of T2 target cells preincubated with 1 µM peptide, E:T 20:1 (% specific lysis) [7]: -1

Molecule: ATWGQYWQV (synthetic; alanine at position 1) [gp100 154-162 epitope-analogue ATWGQYWQV]
- Fluorescence Index (HLA-A*0201 stabilization), 25 µM peptide (HLA-A*0201 [8]): 1.42
- Fluorescence Index (HLA-A*0201 stabilization), 50 µM peptide (HLA-A*0201 [8]): 1.94

Molecule: KAWGQYWQV (synthetic; alanine at position 2) [gp100 154-162 epitope-analogue KAWGQYWQV]
- Fluorescence Index (HLA-A*0201 stabilization), 25 µM peptide (HLA-A*0201 [8]): 1.2
- Fluorescence Index (HLA-A*0201 stabilization), 50 µM peptide (HLA-A*0201 [8]): 1.57

B3: gp100 154-162 epitope-analogue KIWGQYWQV (peptide)
peptide: KIWGQYWQV
notes: synthetic; N-terminal anchor (position 2) replaced by I
- Fluorescence Index (HLA-A*0201 stabilization), 25 µM peptide (HLA-A*0201 [9]): 1.43
- Fluorescence Index (HLA-A*0201 stabilization), 50 µM peptide (HLA-A*0201 [9]): 2
- Stability (DT 50%) (HLA-A*0201 [10]): > 4 h
- IC50 (HLA-A*0201 [11]): 600 nM

B4: gp100 154-162 epitope-analogue KLWGQYWQV (peptide)
peptide: KLWGQYWQV
notes: synthetic; N-terminal anchor (position 2) replaced by L
- Fluorescence Index (HLA-A*0201 stabilization), 25 µM peptide (HLA-A*0201 [9]): 1.55
- Fluorescence Index (HLA-A*0201 stabilization), 50 µM peptide (HLA-A*0201 [9]): 2.19
- Stability (DT 50%) (HLA-A*0201 [10]): > 4 h
- IC50 (HLA-A*0201 [11]): 400 nM
